Reference: paper PMC5764468 (PLoS Biology, 2017)

Molecular target: T1, Human calmodulin (CaM) (human, UniProt P0DP23 1-149)
T1 construct: also called full-length CaM
Test: SEC-SAXS
Conditions: both partners purified

B1: CaM-binding peptide (P_(MLCK)) from the smooth muscle myosin light-chain kinase (peptide)
peptide: Ac-RRKWQKTGHAVRAIGRLSS-NH2
notes: also called myosin light-chain kinase peptide; MLCK peptide
In the case of B1, the “stoichiometry N” value is reported as 1 P_(MLCK) per CaM.
